Data taken from PMC5976931.

Target: B7-1 (mouse (endogenous in mouse podocytes)) (UniProt Q00609)
Chain of UniProt Q00609 (Q00609 38-306): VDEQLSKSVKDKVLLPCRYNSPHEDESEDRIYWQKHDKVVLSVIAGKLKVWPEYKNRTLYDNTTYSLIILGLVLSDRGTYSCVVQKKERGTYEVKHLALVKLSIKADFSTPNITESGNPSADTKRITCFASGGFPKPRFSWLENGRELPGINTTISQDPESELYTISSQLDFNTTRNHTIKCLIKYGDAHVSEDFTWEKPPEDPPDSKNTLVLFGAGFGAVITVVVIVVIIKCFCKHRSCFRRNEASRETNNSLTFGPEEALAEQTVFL

- late apoptosis rate of LPS-treated podocytes cocultured with γδT cells (Group D), Annexin-PI, 48 hours: 10.2%
- late apoptosis rate of LPS-treated podocytes cocultured with γδT cells and treated with the CD28/B7-1 blocker CTLA4-Ig, 100 μg/ml (Group E), Annexin-PI, 48 hours: 6.43%
- phosphor-SRC immunofluorescence intensity in LPS-treated podocytes cocultured with γδT cells (Group D): 142
- phosphor-SRC immunofluorescence intensity in LPS-treated podocytes cocultured with γδT cells and treated with the CD28/B7-1 blocker CTLA4-Ig, 100 μg/ml (Group E): 24
Substance: CD28 (from UniProt P31041 20-218) (receptor)
